Target: phospholamban (PLN), mouse (mouse (endogenous in mouse heart)) (UniProt P61014)
Assay: co-IP

Chain of UniProt P61014 (P61014 whole entry): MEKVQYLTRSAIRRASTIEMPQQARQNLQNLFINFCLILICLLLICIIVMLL

With “protein phosphatase 1 catalytic subunit (PP1c), mouse (from UniProt P62137 1-330) (enzyme)” the reduction of PP1c bound to PLN in Ppp1r3a-KO against WT hearts was 58%.
